Measured values: the supplement of paper PMC10266784

B1: library; numbered along this chain (parent)
chain: MAAAAAAAAEQQSSNGPVKKSMREKAVERRSVNKEHNSNFKAGYIPIDEDRLHKTGLRGRKGNLAICVIILLFILAVINLIITLVIWAVIRIGPNGCDSMEFHESGLLRFKQVSDMGVIHPLYKSTVGGRRNENLVITGNNQPIVFQQGTTKLSVENNKTSITSDIGMQFFDPRTQNILFSTDYETHEFHLPSGVKSLNVQKASTERITSNATSDLNIKVDGRAIVRGNEGVFIMGKTIEFHMGGNMELKAENSIILNGSVMVSTTRLPSSSSGDQLGSGDWVRYKLCMCADGTLFKVQVTSQNMGCQISDNPCGNTH

Variants of: B1
Experiment: SGCB cell-surface expression functional score (HA stain, bin4 vs bin1, normalised to synonymous) (log10 ratio); higher = more cell-surface SGCB (functional)
Protocol: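 Deep mutational scan of full-length human SGCB (YFP-SGCB-HA, NNN codon sublibraries A-F) delivered by lentivirus at low MOI into ADG-HEK293 cells stably expressing SGCA, SGCD and SGCG. YFP-positive cells were stained for surface HA on unpermeabilized cells and FACS-sorted into bins. The functional score is log10(frequency in high bin 4 / frequency in low bin 1), normalised per chunk so that synonymous variants have mean 0 and SD 0.5. Scores are the median over codons and over duplicate biological replicates; scores below -0.5 are called non-functional. Scale: negative means deleterious.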

SGCB cell-surface expression functional score (log10): each site, then its substitutions
A3: H 0.3; P 0.42; W 0.1; S -0.23; L -0.02; R 0.15; V 0.12; Q 0.11; I -0.02; G 0.02; N 0.29; E 0.2; D 0.14; K 0.06; F 0.22; C -0.24; Y 0.27; T 0.17; M 0.11
N15: W 0.29; G 0.04; T 0.14; H -0.07; I 0.04; S -0.02; F 0.28; E 0.33; C 0.19; M 0.35; P 0.34; L 0.32; V 0.31; Y 0.13; R 0.19; Q 0.32; K 0.05; A 0.45; D -0.15
G16: E 0.38; I -0.02; N 0.14; Y 0.23; V 0.38; K 0.11; R 0.04; T -0.27; S 0.37; C -0.06; M 0.4; D 0.57; A -0.31; F 0.52; P 0.37; Q 0.97; L -0.08; W 0.23; H 0.08
S13: Q 0.29; D 0.05; F -0.45; N 0.08; P 0.2; C -0.36; R -0.07; V 0.2; E 0.25; A 0.2; L 0.02; Y 0.05; M 0.29; G -0.08; T -0.13; W 0.8; H 0.13; K 0.46; I -0.1
S14: E 0.27; L 0.1; M 0.08; F 0.19; P 0.22; A 0.14; Q 0.46; R 0.04; Y -0.15; T -0.01; I 0.03; H 0.09; K 0.31; V 0.21; G 0.43; W -0.06; D 0.3; N 0.61; C 0.04
Q11: I -0.5; V -0.03; F 0.07; K -0.03; G 0.64; L 0.04; R 0.14; E 0.17; C 0.65; S 0.39; Y 0.17; D 0.04; P 0.41; W 0.61; T -0.02; A -0.04; H 0.19; M -0.03; N 0.3
A7: I 0.29; H -0.54; N 0.06; P 0.29; K 0.48; Q 0.41; W 0.57; S -0.09; C 0.18; R 0.24; T 0.27; L 0.13; E -0.36; M 0.23; Y 0.05; F 0.02; V 0.16; G 0.2; D 0.19
A9: W -0.24; E 0.28; D 0.38; T 0.39; F 0.04; L 0.19; N -0.39; Y 0.45; R 0.3; I 0.35; M 0.67; Q 0.46; S 0.12; V 0.15; K 0.19; P 0.17; H 0.18; G 0.37; C 0.54
A4: M 0.19; S 0.05; R -0.11; L 0.45; W -0.07; P 0.44; N -0.48; C 0.4; V -0.06; T 0.36; E -0.43; D 0.21; I 0.3; H 0.44; Y -0.14; G 0.26; F -0.21; Q -0.48; K -0.03
P17: V -0.13; N 0.1; T 0.31; G -0.18; H 0.1; L -0.13; C 0.46; W -0.2; M -0.04; D 0.27; I -0.28; Q -0.31; E 0.21; Y 0.31; S 0.12; K 0.13; A 0.2; R -0.12; F 0.2
K19: D 0.06; E 0.33; M 0.02; H 0.21; F 0.01; I 0.14; G 0.02; A 0.35; N 0.14; L 0.3; C -0.11
E10: Y 0.17; H 0.08; G 0.28; P 0.05; V -0.1; K 0.18; D 0.45; R 0.14; M -0.03; C 0.47; W -0.16; F -0.46; L 0.02; A 0.17; S 0.03; N 0.39; Q 0.15; I 0.41; T 0.27
V18: N -0.03; E 0.13; G 0.04; I 0.24; A 0.26; P 0.29; M -0.08; K 0.16; D 0.09; Q 0.17; C -0.07; S 0.21; T 0.24; Y 0.14; F 0; W 0.55; L -0.01; R 0.23; H -0.54
A8: W 1.01; T 0.33; S 0.05; C 0.27; R 0.09; Q -0.13; I 0.15; G 0.3; F -0.02; Y 0.51; K 0.32; M -0.04; D 0.14; N 0.12; L -0.18; V 0.43; P 0.35; H 0.25; E 0.48
A2: V 0.12; D -0.07; T 0.11; N 0.38; W -0.4; G 0.17; Y 0.14; P 0.24; Q 0.19; E -0.61; I 0.13; C 0.1; K 0.23; R 0.03; F -0.48; H 0.34; L 0.2; S 0.14; M 0.02
A5: N -0.07; F 0.61; V 0.01; E -0.03; Y 0.39; L 0.24; K 0.07; D -0.01; R -0.2; H 0.12; G 0.2; M 0.25; Q 0.33; S 0.1; I 0.29; T 0.22; P -0.19; C 0.11; W 0.56
Q12: I -0.43; C -0.19; G 0.12; H 0.03; W -0.29; D -0.24; N 0.01; M -0.09; K 0.02; V -0.06; A 0.29; L 0.03; E 0; T -0.35; R 0.29; S 0.04; Y -0.05; F -0.27; P 0.06
A6: N 0.26; G 0.15; V 0.22; C -0.11; M 0.13; E -0.14; W -0.46; S 0.25; Q 0.69; D 0.24; T 0.07; I 0.36; P 0.11; L -0.21; H -0.23; R 0; Y 0.61; K -0.2; F 0.37
